According to US20250313648A1, “Binders of Chondroitin Sulfate Proteoglycan (CSPG4) Polypeptides” (Regents of the University of Minnesota, priority 2021, published 2025):

Columns and labels:
[1] = molecular target: T1, CSPG4 (Homo sapiens, UniProt Q6UVK1); assay: Specificity of antibody by western blot of CSPG4 wild type and knockout cell lysates and immunofluorescence cell staining; assay type: binding; details: western blot of mock and CSPG4-CRISPR cell lines; immunofluorescence of HEY parent cells
T1 construct: screening against CSPG4 wild type and knockout cell lysates via western blot and cell staining via immunofluorescence; endogenous in cells; host or cells: HEY, ES-2 and A2780 human ovarian cancer cell lines (parent/mock cells, with CSPG4-CRISPR knockouts as negative control)
Protocol: FIGS. 1A-1D. Antibody 7H5A2 targets CSPG4. FIG. 1A) Amino acid sequence of recombinant protein target used to generate antibody 7H5A2 (SEQ ID NO:34). Black text denotes CSPG4 region (SEQ ID NO:33), the lighter gray text corresponds to human FC sequence for protein purification. […]) Western blot with CSPG4 antibodies 763.74 (FIG. 1B) and 7H5A2 (FIG. 1C). Cells are harvested in lysis buffer and 40 μg protein was loaded in each well from the indicated mock and CSPG4-CRISPR cell lines. Alpha-tubulin is included as a loading control. FIG. 1D) Immunofluorescence staining of HEY parent cells with antibody 7H5A2. Red bar=10 μm. Magnification 600×.
Western blot: Western blots were performed using standard methods as described previously by Yang, et al., Cancer Res. 69(19):7538-47 (2009). […]
Generation of novel CSPG4 antibody: CSPG4-specific mouse monoclonal antibody 7H5A2 was generated by Promab Biotechnologies Inc (Richmond, CA) by injection of a recombinant CSPG4 protein immunogen corresponding to aa 1538-2221 of the CSPG4 core protein extracellular domain, expressed and purified from a eukaryotic expression system (see FIG. 1A). The specificity of the antibody was determined by screening against CSPG4 wild type and knockout cell lysates via western blot and cell staining via immunofluorescence (see FIGS. 1B and 1C). […]

[2] = tested on: HEY cells; assay: Matrigel invasion assay with antibody pre-incubation; assay type: cell-based, human; details: 50 μg/ml antibody, 2 hours pre-incubation, 24 hours, inhibition greater than with antibody 763.74
Protocol: (§1) FIGS. 10A-10D. Anti-CSPG4 antibody 7H5A2 inhibits Zeb1 expression and FAK activation, cell invasion and spheroid formation. FIG. 10A) Western blot for pFAK, FAK, and ZEB1 in EOC cells plated in 1% methylcellulose in the presence of 50 μg/ml normal mouse IgG1 (nmIgG1) or anti-CSPG4 antibody 7H5A2 cultured in suspension for 24 hours. FIG. 10B) Invasion assay using HEY cells pre-incubated with control (nm IgG1) or anti-CSPG4 (763.74 and 7H5A2) antibodies at 50 μg/ml for 2 hours and then plated in invasion chambers in the presence of the antibody in the top chamber only for 24 hours. Bars represent the total number of invading cells counted in five random fields/well from duplicate wells, +/−S.D. P values determined by student's t-test with Welch's correction. n=6 from 3 separate experiments. FIG. 10C) Cell growth assay using EOC cells plated in the presence of the indicated antibodies at 50 μg/ml in 1% methylcellulose for 7 days (HEY) or 14 days (A2780 and ES-2). Cells were collected from methylcellulose culture at those time points, and re-plated overnight in normal growth media in tissue culture plates. The following day all cells were collected from each well and counted. P values determined by student's t-test with Welch's correction, comparing live cell numbers (determined by trypan blue exclusion) from each condition, n=4. […]

[3] = tested on: EOC cells (HEY, A2780, ES-2); assay: Spheroid formation / cell growth assay in 1% methylcellulose with antibody; assay type: cell-based, human; details: CSPG4 expressing mock transfected EOC cells, 50 μg/ml antibody
Protocol: as §1

[4] = tested on: FAK activation and ZEB1 expression in EOC cells; assay: Western blot for pFAK, FAK and ZEB1 in EOC cells plated in 1% methylcellulose with antibody; assay type: cell-based, human; details: 50 μg/ml antibody vs normal mouse IgG1, suspension culture 24 hours, all three cell lines
Protocol: as §1

T1 sequence (Q6UVK1 30-2322): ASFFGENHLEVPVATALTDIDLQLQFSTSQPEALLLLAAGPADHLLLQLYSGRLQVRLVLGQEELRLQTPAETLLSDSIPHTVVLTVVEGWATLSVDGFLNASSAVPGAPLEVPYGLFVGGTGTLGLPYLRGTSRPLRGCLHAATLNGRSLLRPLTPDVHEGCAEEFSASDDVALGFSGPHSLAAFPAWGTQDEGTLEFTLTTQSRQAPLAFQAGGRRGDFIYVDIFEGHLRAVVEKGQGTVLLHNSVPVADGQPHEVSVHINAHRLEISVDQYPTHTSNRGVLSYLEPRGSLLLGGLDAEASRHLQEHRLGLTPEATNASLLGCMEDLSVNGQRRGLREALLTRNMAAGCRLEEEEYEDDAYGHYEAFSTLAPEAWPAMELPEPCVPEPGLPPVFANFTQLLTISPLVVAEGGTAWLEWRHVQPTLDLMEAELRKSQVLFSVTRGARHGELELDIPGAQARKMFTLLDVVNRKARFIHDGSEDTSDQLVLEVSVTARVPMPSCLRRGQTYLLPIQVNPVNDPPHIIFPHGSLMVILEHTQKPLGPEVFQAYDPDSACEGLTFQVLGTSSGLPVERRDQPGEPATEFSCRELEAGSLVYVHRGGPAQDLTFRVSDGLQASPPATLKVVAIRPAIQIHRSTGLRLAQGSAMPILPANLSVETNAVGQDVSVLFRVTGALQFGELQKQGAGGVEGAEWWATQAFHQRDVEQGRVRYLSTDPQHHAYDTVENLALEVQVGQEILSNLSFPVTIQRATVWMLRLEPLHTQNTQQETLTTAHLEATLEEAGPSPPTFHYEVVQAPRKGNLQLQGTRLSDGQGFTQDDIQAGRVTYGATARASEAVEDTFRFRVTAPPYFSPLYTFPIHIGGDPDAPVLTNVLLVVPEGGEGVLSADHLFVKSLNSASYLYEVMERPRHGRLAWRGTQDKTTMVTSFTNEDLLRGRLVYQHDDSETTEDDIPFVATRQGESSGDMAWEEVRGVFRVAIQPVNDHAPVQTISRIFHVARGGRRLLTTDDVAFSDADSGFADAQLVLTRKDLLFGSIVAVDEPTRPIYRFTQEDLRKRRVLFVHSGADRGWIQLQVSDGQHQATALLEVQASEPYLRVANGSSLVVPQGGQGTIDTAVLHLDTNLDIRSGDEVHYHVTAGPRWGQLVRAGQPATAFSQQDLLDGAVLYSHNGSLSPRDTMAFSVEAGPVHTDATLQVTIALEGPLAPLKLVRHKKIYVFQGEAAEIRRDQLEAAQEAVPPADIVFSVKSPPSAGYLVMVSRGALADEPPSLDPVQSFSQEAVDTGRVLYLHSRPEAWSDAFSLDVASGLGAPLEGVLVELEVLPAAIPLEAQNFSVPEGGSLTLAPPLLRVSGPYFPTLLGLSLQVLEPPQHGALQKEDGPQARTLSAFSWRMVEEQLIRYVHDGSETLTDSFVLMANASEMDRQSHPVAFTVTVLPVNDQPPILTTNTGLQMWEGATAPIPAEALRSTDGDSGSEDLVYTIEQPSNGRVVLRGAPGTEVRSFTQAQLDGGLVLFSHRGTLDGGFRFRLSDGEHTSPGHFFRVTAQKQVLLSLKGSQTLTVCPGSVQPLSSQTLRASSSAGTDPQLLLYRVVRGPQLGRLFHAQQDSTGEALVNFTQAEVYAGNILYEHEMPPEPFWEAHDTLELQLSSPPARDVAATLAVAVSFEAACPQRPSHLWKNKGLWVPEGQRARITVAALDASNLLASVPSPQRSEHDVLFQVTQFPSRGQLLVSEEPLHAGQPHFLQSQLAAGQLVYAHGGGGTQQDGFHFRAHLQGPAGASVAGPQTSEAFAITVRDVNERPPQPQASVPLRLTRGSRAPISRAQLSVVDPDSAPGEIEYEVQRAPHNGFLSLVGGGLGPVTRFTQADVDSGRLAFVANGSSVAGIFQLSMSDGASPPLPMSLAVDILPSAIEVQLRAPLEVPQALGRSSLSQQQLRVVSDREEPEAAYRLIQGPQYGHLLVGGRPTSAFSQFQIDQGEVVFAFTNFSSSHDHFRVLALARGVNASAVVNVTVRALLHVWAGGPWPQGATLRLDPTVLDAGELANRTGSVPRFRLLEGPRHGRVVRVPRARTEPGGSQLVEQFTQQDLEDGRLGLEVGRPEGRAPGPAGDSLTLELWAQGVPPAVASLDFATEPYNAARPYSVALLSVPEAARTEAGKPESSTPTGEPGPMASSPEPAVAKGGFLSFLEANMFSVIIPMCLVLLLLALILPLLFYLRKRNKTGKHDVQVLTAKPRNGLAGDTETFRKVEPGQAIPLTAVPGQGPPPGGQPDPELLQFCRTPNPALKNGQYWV

B1: 7H5A2: CSPG4-specific mouse monoclonal antibody, isotype IgG1; heavy chain variable SEQ ID NO:8, light chain variable SEQ ID NO:16 (antibody, V domains shown)
VH: QVQLQQSGAELVRPGSSVKISCKASGFAFSNYWMNWVKQRPGQGLEWIGQIFPGDGDTNYNGKFKGKATLTADKSSSTAYMQLISLTSEDSAVYFCVRESDWGRGTTLTVSS
VL: DIQMTQTTSSLSASLGDRVTISCSASQGINNYLNWYQQTPDGTVKLLIFYTSSLQSGVPSRFSGSGSGTDYSLTISNLEPEDIATYYCQQYSKLPFTFGSGTKLEIKR
With B1 the “recognition of CSPG4 on the cell surface” value [1] was “specifically recognizes CSPG4 on the cell surface”, the EOC invasion [2] was “significantly inhibited” and the spheroid formation ([3]; 7 days (HEY) or 14 days (A2780 and ES-2)) was “significantly inhibited”. The EOC cell survival ([3]; live cell numbers by trypan blue exclusion) was “significantly inhibited”, the ZEB1 expression [4] was “inhibited” and the “activation of FAK” value [4] was “inhibited”.
